Source: publication PMC8279307

Biological target: SARS-CoV-2 Spike receptor-binding domain (SARS-CoV-2) (UniProt P0DTC2)
Experiment: AUC

## SARS-CoV-2 Spike receptor-binding domain (from UniProt P0DTC2) (domain or fragment)
  stoichiometry N: 2
